Source: US9284369B2, “Inhibition of angiogenesis” (Genentech, Inc., priority 2007, dated 2016)

Columns and labels:
Bv8 expression [1] = assay: Regulation of Bv8 gene expression in cultured mouse BMMNCs (Taqman); assay type: cell-based; conditions: for stimulation of Bv8 expression in CD11b+Gr1+ cells: 20 pg/ml G-CSF, 4 hrs
Procedure: RNA from tissues or cells was prepared using the RNeasy Mini Kit® (Qiagen). 50 ng total RNA per reaction was used for the real time PCR (Taqman™) analysis. For mouse/human Bv8 and EG-VEGF/Bv8 receptor 1 (PKR-1/EG-VEGFR1, R-1), testis RNA (BD Biosciences) served as control. For mouse/human EG-VEGF/Bv8 receptor 2 (PKR-2/EG-VEGFR2, R2), hypothalamus or whole brain (BD Biosciences) served as the control tissues. Reactions were run on 9600 Emulation mode of 7500 Real […] time PCR system (Applied Biosystems) and the absolute quantification with standard curve was used with Sequence Detection System (SDS) software. The expression level of each gene was further quantified against the house-keeping gene RPL19 in the same sample. To confirm the expression of VEGFR-1, VEGFR-2, EG-VEGF/Bv8 R1 and EG-VEGF/Bv8 R2 in the tumor-associated endothelial cells, standard RT-PCR was conducted using the Titan One Tube™ RT-PCR system (Roche) and the end products were checked on 2% agarose gel (Invitrogen) for the correct size. The sequence of Taqman™ primers are as follows: […]
Recombinant mouse MCP-1, MIP-1α, MIP-1β, MIP-2, bFGF, VEGF, GM-CSF, G-CSF, SDF-1 and TNFα were purchased from R&D Systems (Minneapolis, Minn.). Recombinant mouse KC, IFNγ, Bv8 (Prokineticin-2), IL-4, IL-10, IL-13, TGF-β were from PeproTech Inc. (Rocky Hill, N.J.). […] Conditioned media at 1:3 dilution were used (final FBS concentration was 0.17%). Data were normalized against total cell number. BM cells were flushed from mouse leg bones with DMEM containing 10% FBS. Cells were centrifuged at 1200 rpm for 5 min and resuspended in HBSS media containing 0.2% BSA (low endotoxin, Serologicals Corp. Norcross, Ga.). Two million cells were incubated in 24-well plates with various cytokines for 4 hr at 37° C. in a 5% CO2 incubator. Cells were then transferred in eppendorf tubes, centrifuged and lysed by RNA lysis buffer (Qiagen, Valencia, Calif.). Bv8 expression was assessed by Taqman™ with RPL19 (Ribosomal Protein L19) as the internal control gene. In some cases, CD11b+Gr1+ or CD11b−Gr1− BM cells were obtained using FACS sorting.

Bv8 protein levels = assay: In vivo G-CSF administration, Bv8 protein levels (ELISA); set-up: species or system mouse
Procedure: Eight weeks old Balb/c mice were subcutaneously injected with 10 μg recombinant human G-CSF (Neupogen, Amgen) daily for eight consecutive days. Control animals were given PBS. At the end of study, BM, whole blood and spleen samples were taken for analysis. One group of animals was maintained for two days after G-CSF discontinuation. Neutrophil count was done using an automated, high-resolution, flow cytometry-based hematology analyzer (CellDyn 3000). Serum and BM Bv8 levels were measured by ELISA.
MaxiSorp® 96-well microwell plates (Nalge Nunc International, Rochester, N.Y.) were coated with […] 3F1 antibody (a mouse anti-human BV8 antibody, which also binds to mouse Bv8 in 50 mM carbonate buffer, pH 9.6, at 4° C. overnight. Plates were washed with PBS containing 0.05% polysorbate 20 and blocked with 0.5% bovine serum albumin, 10 ppm Proclin 300™ (Supelco, Bellefonte, Pa.) in PBS at room temperature for 1 h. After plates were washed, mouse BV8 standards (0.039-2.50 ng/ml in 2-fold serial dilution, Genentech) and samples (minimum 1:10 dilution) in PBS containing 0.5% bovine serum albumin, 0.05% polysorbate 20, 10 ppm Proclin 300® (Supelco, Bellefonte, Pa.) and 0.35N NaCl (sample buffer) were added to the plates. The plates were incubated for 2 h at room temperature. Unbound antibody was removed by a wash step. Antibody bound to the plates was detected by adding biotinylated 4E10 antibody (a hamster anti-mouse BV8 antibody, Genentech) followed by streptavidin-HRP (GE Healthcare, Buckinghamshire, United Kingdom) and 3,3′,5,5′-tetramethyl benzidine (Kirkegaard & Perry Laboratories, Gaithersburg, Md.) as the substrate. The reaction was stopped by adding 1 M phosphoric acid. Absorbance was read at 450 nm on a Titertek™ stacker reader (ICN, Costa Mesa, Calif.). The titration curves of the standards were fit using a four-parameter regression curve-fitting program (Genentech). Data points which fell in the range of the standard curve were used for calculating the mouse BV8 concentrations in samples.

[2] = tested on: PKR2/EG-VEGFR2 expression; assay: Regulation of PKR2/EG-VEGFR2 expression in human bone marrow cells and neutrophils; assay type: cell-based
Description: Taqman reagents for human PKR1/EG-VEGFR1 and PKR2/EG-VEGFR2 were obtained from Applied Biosystems.
Recombinant human MCP-1, MIP-1α, MIP-1β, MIP-2, bFGF, VEGF, GM-CSF, G-CSF, SDF-1α, M-CSF, Erythropoietin (EPO) and TNFα were purchased from R&D Systems (Minneapolis, Minn.). Recombinant human IL-8, IFNγ, Bv8 (Prokineticin-2), IL-4, IL-10, IL-13, TGF-β were from PeproTech Inc. (Rocky Hill, N.J.). SCF (Stem Cell factor) was from Invitrogen Biosource (Carlsbad, Calif.). In some cases, G-CSF from Amgen (Neupogen/Filgrastim) was used. All cytokines were used at 10 ng/ml. Freshly purified cells were washed and re-suspended in HBSS media containing 0.2% BSA (low endotoxin, Serologicals Corp. Norcross, Ga.). Two million cells were incubated in 24-well plates with various cytokines and chemokines for 4 hr at 37° C. in a 5% CO2 incubator. Cells were then transferred into eppendorf tubes, centrifuged and lysed with RNA lysis buffer (Qiagen, Valencia, Calif.). Bv8 expression was assessed by Taqman with RPL19 (Ribosomal Protein L19) as the internal control gene.

Bv8 expression [3] = assay: Bv8 expression in human leukemia cell lines; assay type: cell-based
Procedure: U937, HL-60, THP-1, Hel 92.1.7, KG-1, K562, Jurkat cells were obtained from the ATCC® (Manassas, Va.). Most cells were grown in 10% FBS-containing RPMI. KG-1 cells were grown in 20% FBS-containing Iscove's modified Dulbecco's medium. For THP-1 cells, 10% FBS-containing RPMI was used with Sodium Pyruvate, HEPES and β-mercaptoethanol. For regulation studies, 1 million cells with viability higher than 95% were used. Regulation studies were performed under both normoxia and hypoxia conditions for 4 hr in 1 ml HBSS media containing 0.2% BSA.

Bv8 expression [4] = conditions: previously reported; cited from earlier work

B1: G-CSF: recombinant granulocyte-CSF: mouse or human (R&D Systems) or human Neupogen (Amgen) (protein, chains of the INN, looked up)
chain: MTPLGPASSLPQSFLLKCLEQVRKIQGDGAALQEKLCATYKLCHPEELVLLGHSLGIPWAPLSSCPSQALQLAGCLSQLHSGLFLYQGLLQALEGISPELGPTLDTLQLDVADFATTIWQQMEELGMAPALQPTQGAMPAFASAFQRRAGGVLVASHLQSFLEVSYRVLRHLAQP
In the case of B1, the “stimulation of Bv8 expression in CD11b+Gr1+ cells” value (Bv8 expression [1]; hypoxic conditions) is reported as roughly 10 fold, the “stimulation of Bv8 expression in CD11b+Gr1+ cells” value (Bv8 expression [1]; normoxic conditions) is reported as roughly 5 fold and the “Bv8 up-regulation in purified CD11b+Gr1+ cells” value (Bv8 expression [1]; 10 ng/ml, 4 hr) is reported as “over 100 fold”. For the same molecule, the “up-regulation of Bv8 in unsorted BMMNCs” value (Bv8 expression [1]; 10 ng/ml, 4 hr) was greater than 27 fold, the “increase of Bv8 levels in the BM above background” value (Bv8 protein levels; 24 hours after G-CSF administration) was roughly 30 fold and the “serum Bv8 levels” value (Bv8 protein levels; after G-CSF administration) was “dramatically increased”. The “Bv8 levels in kidney, brain and liver” value (Bv8 protein levels; data not shown) was “no effect”, the “time for BM and serum Bv8 to return to near baseline after discontinuing G-CSF” value (Bv8 protein levels; mouse, in vivo) was no more than 48 h and the “regulation of PKR2/EG-VEGFR2 in human bone marrow” value [2] was “regulate PKR2/EG-VEGFR2 to a significant level”. For the same molecule, the “Bv8 expression in HL-60” value (Bv8 expression [3]) was “Neither G-CSF nor GM-CSF affected Bv8 expression”, the “increase in Bv8 expression in several leukemia cell lines” value (Bv8 expression [3]; 10 ng/ml, 4 hr) was 2-3 fold and the “up-regulation of Bv8 expression in mouse bone marrow cells and peripheral neutrophils” value (Bv8 expression [4]) was greater than 30 fold.
